Measurements as given in paper PMC3458536 (Nucleic Acids Research, 2012).

B1: GST-U2AF35 (natural protein)
chain: MAEYLASIFGTEKDKVNCSFYFKIGACRHGDRCSRLHNKPTFSQTIALLNIYRNPQNSSQSADGLRCAVSDVEMQEHYDEFFEEVFTEMEEKYGEVEEMNVCDNLGDHLVGNVYVKFRREEDAEKAVIDLNNRWFNGQPIHAELSPVTDFREACCRQYEMGECTRGGFCNFMHLKPISRELRRELYGRRRKKHRSRSRSRERRSRSRDRGRGGGGGGGGGGGGRERDRRRSRDRERSGRF

Key:
Assay in all cases: pull-down
[1] = target: His-YB-1 (recombinant His-tagged full-length YB-1) (human, UniProt P67809 1-324)
GST-U2AF65 = GST-U2AF65 (UniProt P26368 1-475)
GST-U2AF65, sequence (P26368 whole entry, one chain of several): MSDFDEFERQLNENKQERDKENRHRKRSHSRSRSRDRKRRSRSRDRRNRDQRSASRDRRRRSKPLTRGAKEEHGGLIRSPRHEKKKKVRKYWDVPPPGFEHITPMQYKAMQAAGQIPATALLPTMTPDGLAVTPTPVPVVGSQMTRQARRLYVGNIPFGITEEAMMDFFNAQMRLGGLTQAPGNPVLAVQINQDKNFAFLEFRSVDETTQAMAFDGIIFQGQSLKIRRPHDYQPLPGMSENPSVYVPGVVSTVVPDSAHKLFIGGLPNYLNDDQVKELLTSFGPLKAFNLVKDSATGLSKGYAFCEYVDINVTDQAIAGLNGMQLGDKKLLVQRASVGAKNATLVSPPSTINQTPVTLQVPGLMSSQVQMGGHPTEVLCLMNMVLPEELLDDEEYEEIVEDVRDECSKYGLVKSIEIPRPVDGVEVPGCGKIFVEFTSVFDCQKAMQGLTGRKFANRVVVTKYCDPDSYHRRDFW

GST-U2AF35 = target: B1

binding result [1] | binding result (GST-U2AF65) | binding result (GST-U2AF35) | Binder
binds |  |  | B1
 | binds | binds | His-C (C-terminal B/A repeat domain of YB-1, amino acids 128-324) (domain or fragment) PGGVPVQGSKYAADRNHYRRYPRRRGPPRNYQQNYQNSESGEKNEGSESAPEGQAQQRRPYRRRRFPPYYMRRPYGRRPQYSNPPVQGEVMEGADNQGAGEQGRPVRQNMYRGYRPRFRRGPPRQRQPREDGNEEDKENQGDETQGQQPPQRRYRRNFNYRRRRPENPKPQDGKETKAADPPAENSSAPEAEQGGAE
